The supplement of paper PMC6757056
± gives the standard deviation of the averaged measurements.

B1: library; a variant is named by its letters at N, in order (parent)
chain: GCUGUCACCGAGAAACUGUGAAGUAUAUCUUAAACCUGGGCACUUAAAAGAUAUAUGGAGUUAGUAGUGCAACCUGCUCGGUCUGAUGAGUCCNNNNNNGGACGAAACAGC

Legend:
cyclic di-GMP [1] = variants of: B1; experiment: FACS-Seq fitted mean relative fluorescence mCherry/BFP without ligand (log10 relative fluorescence); HEK293T; ligand: cyclic di-GMP (c-di-GMP-II aptamer); higher = higher reporter protein expression; conditions: ligand present: no
Outline: (§1)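 Enriched HEK293T cells carrying, by lentivirus, an mCherry reporter with the ribozyme switch and an EF1α-BFP marker spent 48 h with or without ligand and were sorted into 6 bins by mCherry/BFP. MiSeq sequencing of PCR-amplified bin genomic DNA gave bin counts. Fluorescence was calculated as the fitted normal mean of those counts. Counts were binned on log10(mCherry/BFP), and means were scaled to five spiked-in control ribozymes.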

cyclic di-GMP [2] = variants of: B1; experiment: normalized RNA/DNA level without ligand (relative to sTRSVctl = 100) (log10 (% of sTRSVctl)); HEK293T; ligand: cyclic di-GMP (c-di-GMP-II aptamer); higher = less ribozyme self-cleavage, higher mRNA level; conditions: reporter: mCherry (pCS4076), ligand present: no
Protocol: (§2)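 Hammerhead (sTRSV) ribozyme switch libraries with a ligand aptamer grafted on stem I and a randomized N4-6 loop II, cloned into the 3' UTR of mCherry and transiently transfected into HEK293T cells; RNA-Seq 72 h post transfection with ligand added 1 h before transfection; RNA read count / plasmid DNA read count normalized to the non-cleaving sTRSVctl (x100), log10; sequences with >100 DNA reads. FACS-Seq: lentiviral library sorted into 6 bins after 48 h ligand, log-normal fit mean of mCherry/BFP scaled to controls. Printed sequences are partial switch sequences.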

cyclic di-GMP [3] = variants of: B1; experiment: FACS-Seq fitted mean relative fluorescence mCherry/BFP with ligand (log10 relative fluorescence); HEK293T; ligand: cyclic di-GMP (c-di-GMP-II aptamer); ligand concentration (+) FACS-Seq: 1 mM; higher = higher reporter protein expression; conditions: ligand present: yes
Outline: as §1

cyclic di-GMP [4] = variants of: B1; experiment: normalized RNA/DNA level with ligand (relative to sTRSVctl = 100) (log10 (% of sTRSVctl)); HEK293T; ligand: cyclic di-GMP (c-di-GMP-II aptamer); ligand concentration (+) RNA-Seq: 1 mM; higher = less ribozyme self-cleavage, higher mRNA level; conditions: reporter: mCherry (pCS4076), ligand present: yes
Protocol: as §2

| Variant | FACS-Seq fitted mean (log10) (cyclic di-GMP [1]) | normalized RNA/DNA level without ligand (log10) (cyclic di-GMP [2]) | FACS-Seq fitted mean (log10) (cyclic di-GMP [3]) | normalized RNA/DNA level with ligand (log10) (cyclic di-GMP [4]) |
| --- | --- | --- | --- | --- |
| GCUUAA | -0.0927 ± 0.12 | 1.56 ± 0.088 | 0.338 ± 0.039 | 1.7 ± 0.072 |
| GCUUAG | -0.473 ± 0.076 | 1.638 ± 0.0094 | -0.165 ± 0.16 | 1.79 ± 0.069 |
| ACUACA | -0.0979 ± 0.082 | 1.55 ± 0.03 | 0.212 ± 0.16 | 1.73 ± 0.11 |
| GCUGCG | -1.43 ± 0.31 | 1.789 ± 0.016 | -1.28 ± 0.14 | 1.87 ± 0.13 |
| GCUGCA | 0.156 ± 0.0048 | 1.77 ± 0.025 | 0.255 ± 0.059 | 1.85 ± 0.089 |
| CCUCCG | 0.138 ± 0.023 | 1.769 ± 0.013 | 0.32 ± 0.035 | 1.87 ± 0.073 |
| CCUCCU | -0.211 ± 0.0029 | 1.678 ± 0.011 | 0.278 ± 0.026 | 1.77 ± 0.098 |
| CCUCCC | -0.363 ± 0.069 | 1.81 ± 0.025 | -0.153 ± 0.079 | 1.89 ± 0.12 |
| CCGGUG | -0.614 ± 0.039 | 1.27 ± 0.12 | -0.397 ± 0.038 | 1.46 ± 0.11 |
| CCGGUA | -0.505 ± 0.068 | 1.36 ± 0.12 | -0.223 ± 0.059 | 1.61 ± 0.087 |
| CCGGUU | -0.109 ± 0.11 | 1.592 ± 0.0094 | 0.264 ± 0.0069 | 1.78 ± 0.096 |
| GCUACG | 0.0942 ± 0.14 | 1.58 ± 0.017 | 0.353 ± 0.045 | 1.72 ± 0.1 |
| CCUACC | -0.57 ± 0.25 | 1.757 ± 0.0078 | -0.577 ± 0.048 | 1.85 ± 0.053 |
| ACUUUA | -1.11 ± 0.037 | 1.59 ± 0.044 | -0.989 ± 0.12 | 1.76 ± 0.067 |
| ACUUUU | -0.0638 ± 0.052 | 1.6 ± 0.053 | 0.272 ± 0.091 | 1.8 ± 0.095 |
| UGAAGU | -0.24 ± 0.081 | 1.59 ± 0.024 | 0.0885 ± 0.12 | 1.79 ± 0.12 |
| ACUCUU | -0.426 ± 0.095 | 1.636 ± 0.0073 | -0.112 ± 0.0059 | 1.83 ± 0.11 |
| GCUAUG | -0.741 ± 0.034 | 1.58 ± 0.075 | -0.505 ± 0.019 | 1.72 ± 0.078 |
